Values quoted from earlier work in patent US20070178561A1, “Anti-hiv-1 compounds based upon a conserved amino acid sequence shared by gp160 and the human cd4 protein” (priority 2003, published 2007).

How the values were obtained:
gp160 = gp160 (Human immunodeficiency virus type 1 group M subtype B, UniProt P04578); settings: Jiang et al., Nature 365:113, 1993
HIV-1 = settings: in vitro viral cell growth assays using p24

## TNWLWYIKLFIMIVGGLVGLRIVFAKKKC [683-707KKKC]
gp160
  binding to gp160: bound gp160
HIV-1
  inhibition of viral growth (p24): does not inhibit viral growth
